These results are taken from article PMC9913818.

In experiment [1] the target is Abl2 SH2 domain (UniProt P42684). As to the kind of experiment: SH2 domain microarray probed with fluorescent peptide. The conditions noted are these: reference: unphosphorylated Tyr1510 peptide; sites Y1510.
In experiment [2] the target is Abl1 SH2 domain (UniProt P00519). Described as above. The conditions noted are these: reference: unphosphorylated Tyr1510 peptide; sites Y1510.
Experiment [3] has as its target Abl2 SH2 domain (UniProt P42684). As to the kind of experiment: GST pull-down from cell lysate. The conditions noted are these: reference: vehicle (DMSO) treated cells; sites Y1510.
Experiment [4] has as its target Abl1 SH2 domain (UniProt P00519). Kind of experiment: GST pull-down from cell lysate. The conditions noted are these: reference: vehicle (DMSO) treated cells; sites Y1510.
The target in the next experiment is Abl1 (UniProt P00519). Kind of experiment: co-immunoprecipitation with anti-Abl1. The conditions noted are these: reference: vehicle (DMSO) treated cells; sites Y1510.
A further experiment deals with Abl2 (UniProt P42684). Kind of experiment: co-immunoprecipitation with anti-Abl2. The conditions noted are these: reference: vehicle (DMSO) treated cells; sites Y1510.
For experiment [5], the target named is GST-tagged SH2 domain of Abl1 (human) (UniProt P00519). Kind of experiment: peptide or protein array; GST-tagged SH2 domains of 124 proteins and GST alone spotted in duplicate on nitrocellulose-coated slides; biotinylated IQGAP1 peptides on streptavidin-Cy3 as probes, 16 h at 4 °C in PBS-Tween with 3% milk and 3% BSA; fluorescence read.
Experiment [6] concerns the target GST-tagged SH2 domain of Abl2 (human) (UniProt P42684). The description is as above.
Experiment [7] addresses GST-tagged SH2 domain of Abl1 (human) (UniProt P00519). As to the kind of experiment: pull-down; GST-SH2 domains of Abl1 or Abl2, or GST, on glutathione-Sepharose, incubated with H1993 cell lysates for 3 h at 4 °C in Buffer A; cells treated with 100 nM crizotinib or DMSO for 24 h; Western blot for IQGAP1. A general note: Immunoblotting shows a protein as a band on a membrane.

Experiment [8] has as its target GST-tagged SH2 domain of Abl2 (human) (UniProt P42684). Described as above.
The target in experiment [9] is endogenous Abl1 (H1993 cells) (human (endogenous in H1993)) (UniProt P00519). As to the kind of experiment: co-IP; endogenous proteins from H1993 cell lysates (Buffer A: 50 mM Tris-HCl pH 7.4, 150 mM NaCl, 1% Triton X-100); IP with anti-MET, anti-IQGAP1, anti-Abl1 or anti-Abl2, controls IgG or non-immune rabbit serum; for the Abl IPs cells also treated with 100 nM crizotinib or DMSO for 24 h.

Experiment [10] has as its target endogenous Abl2 (H1993 cells) (human (endogenous in H1993)) (UniProt P42684). The experiment is described as above.

In the case of “IQGAP1 1502-1518 (from UniProt P46940) pTyr1510 peptide”, the “other: array signal as percent of phosphopeptide signal” value with Abl2 SH2 domain [1] and with Abl1 SH2 domain [2] was “gained; reference less than 0.5” throughout.
With “IQGAP1 (from UniProt P46940) 100 nM crizotinib (MET inhibitor), 24 h”, the other: percent decrease vs vehicle in the experiment with Abl2 SH2 domain [3] worked out at 92%; with Abl1 SH2 domain [4], 82%; in the experiment with Abl1, 84%; with Abl2 it was 75%.
As for “biotinylated IQGAP1 peptide (amino acids 1502 to 1518) with non-phosphorylated Tyr1510 (from UniProt P46940 1502-1518)”, the percent of the binding of the tyrosine-phosphorylated peptide (array fluorescence) in experiment [5] and in [6] was under 0.5% each time.
In the case of “endogenous IQGAP1 (H1993 cells) (from UniProt P46940 1-1657) (natural protein)”, the percent less IQGAP1 pulled down after crizotinib against DMSO in experiment [7] turned out to be 82%; in [8], 92%. Moreover, the percent decrease of co-immunoprecipitated IQGAP1 after crizotinib against DMSO in [9] worked out at 84%; in experiment [10] it was 75%.
